PMC12167799, “The role of human Shu complex in ATP-dependent regulation of RAD51 filaments during homologous recombination–associated DNA damage response”

Assays:
[1] = target: RAD51;SWSAP1 (hSWS1-SWSAP1, WT);hSWS1 (Homo sapiens;Homo sapiens;Homo sapiens, UniProt Q06609;Q6NVH7;Q19AV6 1-339;22-250;1-140, ||); experiment: competition (fluorescence intensity); 2 mM ATP; Shu inhibits exchange at 5' end; FPA: 5 nM 6-FAM DNA, 37 C, 2 mM nucleotide where stated (buffer not given in material); EMSA: 0.05 uM 6-FAM DNA, 5%/15% native PAGE; RAD51 filaments: 2 mM ATP; details: protein: recombinant;recombinant;recombinant; tags: none;N-terminal 6xHis-TEV, cleaved;none; label: 5' 6-FAM
[2] = target: RAD51;SWSAP1 D96A (Walker B);hSWS1 (Homo sapiens;Homo sapiens;Homo sapiens, UniProt Q06609;Q6NVH7;Q19AV6 1-339;22-250;1-140, |D117A|); experiment: competition (fluorescence intensity); 2 mM ATP; D96A stabilizes 5' end like WT; FPA: 5 nM 6-FAM DNA, 37 C, 2 mM nucleotide where stated (buffer not given in material); EMSA: 0.05 uM 6-FAM DNA, 5%/15% native PAGE; RAD51 filaments: 2 mM ATP; details: protein: recombinant;recombinant;recombinant; tags: none;N-terminal 6xHis-TEV, cleaved;none; label: 5' 6-FAM
RAD51 = RAD51 (Homo sapiens, UniProt Q06609 1-339); experiment: competition (fluorescence intensity); 2 mM ATP; 100x unlabeled dT39 lowers signal ~30%; FPA: 5 nM 6-FAM DNA, 37 C, 2 mM nucleotide where stated (buffer not given in material); EMSA: 0.05 uM 6-FAM DNA, 5%/15% native PAGE; RAD51 filaments: 2 mM ATP; details: protein: recombinant; tags: none; chain copies: 10; label: 5' 6-FAM

Measured: binding result

Sequence of RAD51;SWSAP1 (hSWS1-SWSAP1, WT);hSWS1 (Q06609 whole entry, one chain of several): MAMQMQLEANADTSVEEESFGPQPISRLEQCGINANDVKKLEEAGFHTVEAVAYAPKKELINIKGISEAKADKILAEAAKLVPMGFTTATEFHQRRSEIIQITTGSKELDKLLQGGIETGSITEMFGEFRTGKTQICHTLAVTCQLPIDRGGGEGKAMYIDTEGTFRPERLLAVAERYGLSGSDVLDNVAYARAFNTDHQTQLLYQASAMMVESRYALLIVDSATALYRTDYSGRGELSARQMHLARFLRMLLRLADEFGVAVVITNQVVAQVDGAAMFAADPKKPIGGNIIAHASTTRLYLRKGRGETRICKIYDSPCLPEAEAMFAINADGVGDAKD
Sequence of RAD51;SWSAP1 D96A (Walker B);hSWS1 (Q06609 whole entry, stated change not applied, one chain of several): as the sequence (Q06609 whole entry, one chain of several) above
Sequence of RAD51 (Q06609 whole entry): as the sequence (Q06609 whole entry, one chain of several) above

TTTTTTTTTTTTTTTTTTTTTTTTTTTTTTTTTTTTTTT (ssDNA) [*5'-(T)39]
binds: all assays above
